± gives the half width of the 95% confidence interval.
Tests used:
[1] = folding stability dG unfold from trypsin proteolysis; higher = more stable
Outline: (§1)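 K50 was inferred by Bayesian fitting of sequencing counts obtained after protease digestion of designed mini-proteins. Unfolding free energy was derived by comparison with a sequence-predicted unfolded-state K50 and a shared folded-state K50, for each protease or both combined. The mini-proteins were under 80 residues, had no cysteine, were carried in a PA-tagged cDNA display construct, and were kept only if AlphaFold2 dimer inter-PAE exceeded 15.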

[2] = folding stability dG unfold (combined trypsin and chymotrypsin); higher = more stable
Outline: as §1

[3] = folding stability dG unfold from chymotrypsin proteolysis; higher = more stable
Outline: as §1

SKKVKIVIKIKVEVTNKDGKKKTFEFTLVIELSEEEIEKLKKKIEDLLNELKKKYPNIKKVEITEIKILPSA [r9_436_TrROS_Hall]
folding stability dG unfold [1]: 3.59 ± 0.26 kcal/mol
folding stability dG unfold [2]: 4.31 ± 0.62 kcal/mol
folding stability dG unfold [3]: 4.4 ± 0.32 kcal/mol

SAGGSAGGSAKTITITVKPEDMTEEELKEKIAEELGIDPEEIEIVKVEKLPNGEVKVTIKIKSAGGSAGGSA [r18_118_TrROS_Hall]
folding stability dG unfold [1]: 3.59 ± 0.17 kcal/mol
folding stability dG unfold [2]: 3.08 ± 0.16 kcal/mol
folding stability dG unfold [3]: 1.93 ± 0.11 kcal/mol

SAMVTYDPEKGVFEAEIEVGGETLRVTVVRDPETGEVVAVVERPGSGEPVVLPLPFKSLSDVIRYAEEHSAG [r14_803_TrMRF]
folding stability dG unfold [1]: 2.3 ± 0.07 kcal/mol
folding stability dG unfold [2]: 2.36 ± 0.11 kcal/mol
folding stability dG unfold [3]: 2.49 ± 0.044 kcal/mol

SAGGSAGGSWDRIKDALRKYGFPPENVKIEFETYPNGNMNVMIRHNGEQIPRNRINKAIQELMSAGGSAGGS [r12_175_TrROS]
folding stability dG unfold [1]: 1.27 ± 0.035 kcal/mol
folding stability dG unfold [2]: 1.54 ± 0.22 kcal/mol
folding stability dG unfold [3]: 1.46 ± 0.096 kcal/mol

SAPFTATETVVTEEEDPATGLTRIPVEMTVDDHPVTGEGVRDPADPSRVSFSITFPDSDLTLTGEEPLPSAG [r14_178_JUSTAS]
folding stability dG unfold [1]: 0.491 ± 0.036 kcal/mol
folding stability dG unfold [2]: 0.312 ± 0.048 kcal/mol
folding stability dG unfold [3]: -0.0428 ± 0.11 kcal/mol

SAGGAPVSVSTSTLPDGRTVTTTTYPSGSTTTTITDPVTGATATASSPGSGTTTFTDPATGATTVVGSAGGS [r16_91_JUSTAS]
folding stability dG unfold [1]: 1.36 ± 0.053 kcal/mol
folding stability dG unfold [2]: 1.02 ± 0.065 kcal/mol
folding stability dG unfold [3]: 0.635 ± 0.029 kcal/mol

SAGGRVRLEERVLPDGRRVLVVHLPDRPLEVVIPLEGLALPPDQPVLVRGEGGVRELPIGDLLPEALFSAGG [r13_97_TrMRF]
folding stability dG unfold [1]: 1.06 ± 0.011 kcal/mol
folding stability dG unfold [2]: 0.88 ± 0.036 kcal/mol
folding stability dG unfold [3]: 0.658 ± 0.053 kcal/mol

SAGGKIKIVLSAEELEKKFGKSIEELAAELAKKLFPNKKVKVKKVKIEKDENGKEKLYVEVEIEPEKPSAGG [r13_723_TrROS_Hall]
folding stability dG unfold [1]: 2.91 ± 0.15 kcal/mol
folding stability dG unfold [2]: 3.11 ± 0.17 kcal/mol
folding stability dG unfold [3]: 3.2 ± 0.073 kcal/mol

SSPANITTTTTSSPLNLETFDPKTGKKKRINYTLTTETVTFPGGEVVTTTVLKDASTGKVTTLSTTVTPTSA [r9_402_JUSTAS]
folding stability dG unfold [1]: 0.773 ± 0.081 kcal/mol
folding stability dG unfold [2]: 1.08 ± 0.12 kcal/mol
folding stability dG unfold [3]: 1.22 ± 0.14 kcal/mol

SAGGSAGGSAGGMTITLVDPENGVKEAEIEEVDGKLRITVVNEETGEKEEIELPLEELLSAGGSAGGSAGGS [r10_772_TrROS_Hall]
folding stability dG unfold [1]: 0.648 ± 0.063 kcal/mol
folding stability dG unfold [2]: 0.477 ± 0.16 kcal/mol
folding stability dG unfold [3]: 0.288 ± 0.14 kcal/mol

SMEEAIEEAIKKNEEAIAAGGGPVKVELEVPGYRIDLTFSPNGLKITNIEEKNSPDGIPSVKSTSDVPPPSA [r9_308_JUSTAS]
folding stability dG unfold [1]: 0.845 ± 0.085 kcal/mol
folding stability dG unfold [2]: 0.284 ± 0.14 kcal/mol
folding stability dG unfold [3]: -0.503 ± 0.11 kcal/mol

PEKVILVEVPAGEELTEEELKELAEALGLEVEIEKVKVTVTVTVEVTLPDGKKVKVETTETRTVVLVTVKDS [r1_238_TrROS_Hall]
folding stability dG unfold [1]: 2.66 ± 0.077 kcal/mol
folding stability dG unfold [2]: 3.16 ± 0.14 kcal/mol
folding stability dG unfold [3]: 3.42 ± 0.14 kcal/mol

SAGGSAGGSAPPWTRVLGLGTFPPGVPDLPVEVPGGNVYALFTPTEDGSVQVLIVDLIPPLSAGGSAGGSAG [r3_464_TrMRF]
folding stability dG unfold [1]: 0.472 ± 0.1 kcal/mol
folding stability dG unfold [2]: 0.773 ± 0.17 kcal/mol
folding stability dG unfold [3]: 0.965 ± 0.21 kcal/mol

SAGGSAGGSAGGTLEAIKELAKDMPPGDKNIPIKIPDGKPYTIDVEMDPDGKMEIDIEPSAGGSAGGSAGGS [r10_1017_TrROS]
folding stability dG unfold [1]: 1.19 ± 0.041 kcal/mol
folding stability dG unfold [2]: 0.466 ± 0.2 kcal/mol
folding stability dG unfold [3]: -0.634 ± 0.86 kcal/mol

SAGGSAGGSAGGLVAKVYRDGKEAVFYFDSPEEMVESIRPLFPDGKEVKVEVTTPEELFSAGGSAGGSAGGS [r10_1167_TrMRF]
folding stability dG unfold [1]: -0.677 ± 0.16 kcal/mol
folding stability dG unfold [2]: 0.0392 ± 0.24 kcal/mol
folding stability dG unfold [3]: 0.22 ± 0.27 kcal/mol

SAGGSAGGSAMPGQKVRLTDELKKAGLEIEEAEVVEVDGKLYIRVNGKIIEIDADAIEEIEPSAGGSAGGSA [r18_445_TrROS_Hall]
folding stability dG unfold [1]: 0.366 ± 0.13 kcal/mol
folding stability dG unfold [2]: 1.11 ± 0.1 kcal/mol
folding stability dG unfold [3]: 1.43 ± 0.037 kcal/mol

SMKFTITLSNPVDGTTETIPLDVPLEELVKIIKEAHEKGGTVTITGLPEELAKEIAEKSGLDVSINPAPGSA [r9_1207_JUSTAS]
folding stability dG unfold [1]: 3.13 ± 0.14 kcal/mol
folding stability dG unfold [2]: 2.85 ± 0.14 kcal/mol
folding stability dG unfold [3]: 2.57 ± 0.053 kcal/mol

SAGGSAGGSAMKYYVTITFTDPNNGNTTTEIKEVTTEEEVEKVVEELAPSSYASVKVSIKPKSAGGSAGGSA [r18_258_JUSTAS]
folding stability dG unfold [1]: 0.304 ± 0.059 kcal/mol
folding stability dG unfold [2]: 0.892 ± 0.2 kcal/mol
folding stability dG unfold [3]: 1.16 ± 0.28 kcal/mol

SMKEKALEKAKEKAEEIKKKYSNVKVKVEVKVEITPKGEIKITYKVVIEKPEKEKPYWVKYPNGPWKKIGSA [r9_82_JUSTAS]
folding stability dG unfold [1]: 1.2 ± 0.24 kcal/mol
folding stability dG unfold [2]: 1.5 ± 0.55 kcal/mol
folding stability dG unfold [3]: 1.86 ± 0.54 kcal/mol

SAGGSAGGSAGGSKTYRIYFKDNNKVITVKSKEDLKAALEKAGYTISEEDLDKIVKIEPSAGGSAGGSAGGS [r4_104_TrROS_Hall]
folding stability dG unfold [1]: 1.69 ± 0.046 kcal/mol
folding stability dG unfold [2]: 1.8 ± 0.087 kcal/mol
folding stability dG unfold [3]: 1.81 ± 0.07 kcal/mol

SAGGSAGGSAGGEPELVFKVRVRTKDGRELEIEVSAEDLEKLLEALPDIEEVEIEEVEPSAGGSAGGSAGGS [r10_437_TrROS_Hall]
folding stability dG unfold [1]: 2.39 ± 0.087 kcal/mol
folding stability dG unfold [2]: 2.6 ± 0.14 kcal/mol
folding stability dG unfold [3]: 2.68 ± 0.071 kcal/mol

SAGGSAGGSAGGSGPPSLPGVLVEIPEPLPGPEGTEFSDPKGYKYTYDPSNGKVLVERASAGGSAGGSAGGS [r4_78_JUSTAS]
folding stability dG unfold [1]: -0.753 ± 0.17 kcal/mol
folding stability dG unfold [2]: -0.242 ± 0.19 kcal/mol
folding stability dG unfold [3]: -0.0458 ± 0.16 kcal/mol

SAGGMTPAVTETTIELPASDPEAAIAALRAAGWELLARERGPDGSVRMVFAAPTRRVTVDFVGPAAASAGGS [r16_170_JUSTAS]
folding stability dG unfold [1]: 1.06 ± 0.014 kcal/mol
folding stability dG unfold [2]: 1.71 ± 0.032 kcal/mol
folding stability dG unfold [3]: 2.03 ± 0.039 kcal/mol

SAGGSAGGSAPPRRVTIEYDPDSGMFKVKVPGGKEREIEGMPPNQIEEQAKDYGIDRVEIVSAGGSAGGSAG [r3_78_TrROS]
folding stability dG unfold [1]: 0.205 ± 0.16 kcal/mol
folding stability dG unfold [2]: -0.0794 ± 0.18 kcal/mol
folding stability dG unfold [3]: -0.286 ± 0.41 kcal/mol

SAGSSMSLPLPEEIEIEIPNPGLSLEEIKKIVADKLGLKIVSVEEEEGRLVFKAENGIPIRVKIEEPGKSAG [r5_350_JUSTAS]
folding stability dG unfold [1]: 2.35 ± 0.13 kcal/mol
folding stability dG unfold [2]: 2.34 ± 0.072 kcal/mol
folding stability dG unfold [3]: 2.376 ± 0.013 kcal/mol

SAGGSAGGSAGSPVVTTEKVKTEGNTTVYRVTEPALNTETLVTEDAGANPTIKTTTYNTPSAGGSAGGSAGG [r11_738_JUSTAS]
folding stability dG unfold [1]: -0.955 ± 0.21 kcal/mol
folding stability dG unfold [2]: -0.747 ± 0.24 kcal/mol
folding stability dG unfold [3]: -0.937 ± 0.83 kcal/mol

SAGGSAGGSAGGMIRIENPGNGEPRPIKPNDLEDILDNFPGPMRIETGGGEKEVPAKDISAGGSAGGSAGGS [r10_839_TrROS]
folding stability dG unfold [1]: -0.528 ± 0.13 kcal/mol
folding stability dG unfold [2]: -0.0618 ± 0.21 kcal/mol
folding stability dG unfold [3]: 0.052 ± 0.079 kcal/mol

SNIKNIKRVEIYYNPENGWMPKIKVEYPGGEREFMFPPDQAEELLNWLQQKGLPMKITDVEYHPMPPDQMSA [r9_607_TrROS]
folding stability dG unfold [1]: 0.911 ± 0.086 kcal/mol
folding stability dG unfold [2]: 1.27 ± 0.18 kcal/mol
folding stability dG unfold [3]: 1.49 ± 0.048 kcal/mol

SAGGSAMPVVELPIGPELYEKIKEAAEAGDPDKVITLPLKLPNGEEVTLVVEADPATPEFRARVELSAGGSA [r15_700_TrMRF]
folding stability dG unfold [1]: -0.683 ± 0.1 kcal/mol
folding stability dG unfold [2]: 0.105 ± 0.096 kcal/mol
folding stability dG unfold [3]: 0.397 ± 0.085 kcal/mol

SAGGSAGGSKPEPVKPVKLKVKLPGGEYEVEAVELPKGVVLVRNPADNSLAVITPDRLVVLPLSAGGSAGGS [r12_737_TrMRF]
folding stability dG unfold [1]: 0.754 ± 0.024 kcal/mol
folding stability dG unfold [2]: 0.468 ± 0.076 kcal/mol
folding stability dG unfold [3]: 0.0823 ± 0.14 kcal/mol

SAGDAIADLLKEAGFEIDSVDSIEPTDGSYVIGFKFEFPNGWYMEITIWIDPNNPDKIEIDIKMQPPDESAG [r5_683_TrROS]
folding stability dG unfold [1]: 2.6 ± 0.28 kcal/mol
folding stability dG unfold [2]: 4.06 ± 0.45 kcal/mol
folding stability dG unfold [3]: 4.43 ± 0.33 kcal/mol
